Experimental findings from publication doi:10.1101/636423 (bioRxiv, 2019) are described below.

A word on the Kd: it is the constant that tells how readily two partners part at equilibrium. A high value points to weaker binding. The term stoichiometry N denotes the number of molecules, sites or subunits per partner or assembly.

This data set deals with the molecule itself. Nature of the data set: native MS.

B1: whole intracellular region of rat PTPRZ (rat PTPRZ-ICR) (domain or fragment)
chain: not shown
Turning to B1, the Kd is about 7 µM and the “stoichiometry N” value amounted to 2.
